According to patent US20160159862A1 (PROTAGONIST THERAPEUTICS, published 2016):
Bridge positions count the residues as written; N and C are the ends. Square brackets hold non-standard residues; d marks the D form. Ends that are not written are not given here. * marks the point of attachment. Phe(4-CF3) = N[C@@H](Cc1ccc(C(F)(F)F)cc1)C(=O)O; Phe(4-tBu) = CC(C)(C)c1ccc(C[C@H](N)C(=O)O)cc1; 2Nal = N[C@@H](Cc1ccc2ccccc2c1)C(=O)O; d1Nal = N[C@H](Cc1cccc2ccccc12)C(=O)O; d2Nal = N[C@H](Cc1ccc2ccccc2c1)C(=O)O; Oleoyl = CCCCCCCC/C=C\CCCCCCCC(=O)*; NMeR = CN[C@@H](CCCNC(=N)N)C(=O)O; Palmitoyl = CCCCCCCCCCCCCCCC(=O)*; hPhe = N[C@@H](CCc1ccccc1)C(=O)O; Myristoyl = CCCCCCCCCCCCCC(=O)*; NMeE = CN[C@@H](CCC(=O)O)C(=O)O; β3hE = N[C@@H](CCC(=O)O)CC(=O)O; Pen = CC(C)(S)[C@H](N)C(=O)O; dNMeK = CN[C@H](CCCCN)C(=O)O; Lauroyl = CCCCCCCCCCCC(=O)*; Isovaleryl = CC(C)CC(=O)*; Dab = NCC[C@H](N)C(=O)O; Dap = NC[C@H](N)C(=O)O; Hexanoyl = CCCCCC(=O)*

Biological target: α4β7 integrin on human cells (human, UniProt P13612 34-1032; P26010 20-798)
Test: cell-based or functional assay

B1: SEQ ID NO 173 (peptide)
peptide: Ac-[Pen][NMeR]SDTL[Pen][Phe(4-tBu)][b‑H‑E][dK]
modifications: disulfide 1-7 (inferred); not fully specified (residue 10); also: lauroyl (lauroyl chloride) attached after k
  α4β7 cell (Hu) IC50: > 100 nM

B2: SEQ ID NO 174 (peptide)
peptide: Ac-[Pen][NMeR]SDTL[Pen][Phe(4-tBu)][b‑H‑E][dK]
modifications: disulfide 1-7 (inferred); not fully specified (residue 10); also: oleoyl (oleoyl chloride) attached after k
  α4β7 cell (Hu) IC50: > 1000 nM

B3: SEQ ID NO 175 (peptide)
peptide: Ac-[Pen][NMeR]SDTL[Pen][Phe(4-tBu)][b‑H‑E][dK]
modifications: disulfide 1-7 (inferred); not fully specified (residue 10); also: myristoyl (myristoyl chloride) attached after k
  α4β7 cell (Hu) IC50: > 500 nM

## Hexanoyl-[Pen][NMeR]SDTL[Pen][Phe(4-tBu)][b‑H‑E][dK]-NH2 (disulfide 1-7 (inferred)) [SEQ ID NO 176]
  α4β7 cell (Hu) IC50: > 50 nM

## Isovaleryl-[Pen][NMeR]SDTL[Pen][Phe(4-tBu)][b‑H‑E][dK]-NH2 (disulfide 1-7 (inferred)) [SEQ ID NO 177]
  α4β7 cell (Hu) IC50: > 50 nM

## Palmitoyl-[Pen][NMeR]SDTL[Pen][Phe(4-tBu)][β3hE][dK]-NH2 (disulfide 1-7 (inferred)) [SEQ ID NO 178]
  α4β7 cell (Hu) IC50: > 1000 nM

## Lauroyl-[Pen][NMeR]SDTL[Pen][Phe(4-tBu)][β3hE][dK]-NH2 (disulfide 1-7 (inferred)) [SEQ ID NO 179]
  α4β7 cell (Hu) IC50: > 100 nM

## Oleoyl-[Pen][NMeR]SDTL[Pen][Phe(4-tBu)][β3hE][dK]-NH2 (disulfide 1-7 (inferred)) [SEQ ID NO 180]
  α4β7 cell (Hu) IC50: > 1000 nM

## Myristoyl-[Pen][NMeR]SDTL[Pen][Phe(4-tBu)][β3hE][dK]-NH2 (disulfide 1-7 (inferred)) [SEQ ID NO 181]
  α4β7 cell (Hu) IC50: > 1000 nM

## Ac-[Pen][NMeR]SDIL[Pen][Phe(4-tBu)][β3hE][dK]-NH2 (disulfide 1-7 (inferred); also: homodimer via IDA) [SEQ ID NO 186]
  α4β7 cell (Hu) IC50: > 100 nM

## Ac-[Pen][NMeR]SDTQ[Pen][Phe(4-tBu)][β3hE][dK]-NH2 (disulfide 1-7 (inferred); also: homodimer via IDA) [SEQ ID NO 187]
  α4β7 cell (Hu) IC50: > 100 nM

## Ac-[Pen][NMeR]SDIL[Pen][Phe(4-tBu)][β3hE][dK]-NH2 (disulfide 1-7 (inferred); also: homodimer via IDA, Alexa-647 label on IDA) [SEQ ID NO 188]
  α4β7 cell (Hu) IC50: ≤ 10 nM

## Ac-[Pen][NMeR]SQIQ[Pen][Phe(4-tBu)][β3hE][dK]-NH2 (disulfide 1-7 (inferred); also: homodimer via DIG) [SEQ ID NO 189]
  α4β7 cell (Hu) IC50: > 10000 nM

## Ac-[Pen][NMeR]SQIQ[Pen][Phe(4-tBu)][β3hE][dK]-NH2 (disulfide 1-7 (inferred); also: homodimer via IDA) [SEQ ID NO 190]
  α4β7 cell (Hu) IC50: > 100000 nM

## Ac-[Pen][NMeR]SDTL[Pen][dF][dE][dK]-NH2 (disulfide 1-7 (inferred); also: homodimer via DIG) [SEQ ID NO 2]
  α4β7 cell (Hu) IC50: > 100 nM

## Ac-[Pen][NMeR]SDTL[Pen][dF]E[dK]-NH2 (disulfide 1-7 (inferred); also: homodimer via DIG linker) [SEQ ID NO 30]
  α4β7 cell (Hu) IC50: > 100 nM

## Ac-[Pen][NMeR]SDDL[Pen][Phe(4-tBu)][β3hE][dK]-NH2 (disulfide 1-7 (inferred); also: homodimer via IDA) [SEQ ID NO 191]
  α4β7 cell (Hu) IC50: > 10000 nM

## Ac-[Pen][NMeR]SQIQ[Pen][Phe(4-tBu)][β3hE][dK]-NH2 (disulfide 1-7 (inferred); also: homodimer via IDA, Alexa-647 label on IDA) [SEQ ID NO 192]
  α4β7 cell (Hu) IC50: > 10000 nM

## Ac-[Pen][NMeR]SDDL[Pen][Phe(4-tBu)][β3hE][dK]-NH2 (disulfide 1-7 (inferred); also: homodimer via IDA, Alexa-647 label on IDA) [SEQ ID NO 193]
  α4β7 cell (Hu) IC50: > 100000 nM

## Ac-[Pen][NMeR]SDTL[Pen]W[NMeE][dK]-NH2 (disulfide 1-7 (inferred); also: homodimer via DIG linker) [SEQ ID NO 31]
  α4β7 cell (Hu) IC50: > 50 nM

## Ac-[Pen][NMeR]SDTL[Pen][d1Nal]E[dK]-NH2 (disulfide 1-7 (inferred); also: homodimer via DIG linker) [SEQ ID NO 34]
  α4β7 cell (Hu) IC50: > 25 nM

## Ac-[Pen][NMeR]SDTL[Pen][d2Nal]E[dK]-NH2 (disulfide 1-7 (inferred); also: homodimer via DIG linker) [SEQ ID NO 35]
  α4β7 cell (Hu) IC50: > 100 nM

## Ac-C[NMeR]SDTL[Pen]W[dK]-NH2 (disulfide 1-7 (inferred); also: homodimer via PEG13 linker) [SEQ ID NO 36]
  α4β7 cell (Hu) IC50: > 50 nM

## Ac-C[NMeR]SDTL[Pen]W[dK]-NH2 (disulfide 1-7 (inferred); also: homodimer via PEG25 linker) [SEQ ID NO 37]
  α4β7 cell (Hu) IC50: > 100 nM

## Ac-[Pen][NMeR]SDTL[Pen][Phe(4-CF3)][dE][dK]-NH2 (disulfide 1-7 (inferred); also: homodimer via DIG linker) [SEQ ID NO 3]
  α4β7 cell (Hu) IC50: > 25 nM

## Ac-[Pen][NMeR]SDTL[Pen][2Nal][dE][dNMeK]-NH2 (disulfide 1-7 (inferred); also: homodimer via DIG linker) [SEQ ID NO 39]
  α4β7 cell (Hu) IC50: > 10 nM

## Ac-[Pen][NMeR]SDTL[Pen][hPhe]E[dK]-NH2 (disulfide 1-7 (inferred); also: homodimer via DIG linker) [SEQ ID NO 45]
  α4β7 cell (Hu) IC50: > 25 nM

## Ac-[dK]C[NMeR]SDTLCW[dK]-NH2 (disulfide 2-8 (inferred); also: dimer joined by DIG) [SEQ ID NO 4]
  α4β7 cell (Hu) IC50: > 10 nM

## Ac-[Pen][NMeR]SDTL[Pen]W[dE][Dap]-NH2 (disulfide 1-7 (inferred)) [SEQ ID NO 55]
  α4β7 cell (Hu) IC50: > 100 nM

## Ac-[Pen][NMeR]SDTL[Pen]W[dE][Dab]-NH2 (disulfide 1-7 (inferred)) [SEQ ID NO 56]
  α4β7 cell (Hu) IC50: > 500 nM

## Ac-[Pen][NMeR]SDTL[Pen]WE[Dap]-NH2 (disulfide 1-7 (inferred)) [SEQ ID NO 59]
  α4β7 cell (Hu) IC50: > 10000 nM

## Ac-[Pen][NMeR]SDTL[Pen]WE[Dap] (disulfide 1-7 (inferred); also: Ac written after C-terminal Dap, place unclear) [SEQ ID NO 60]
  α4β7 cell (Hu) IC50: > 1000 nM

## Ac-[Pen][NMeR]SDTL[Pen]WE[Dab]-NH2 (disulfide 1-7 (inferred)) [SEQ ID NO 61]
  α4β7 cell (Hu) IC50: > 1000 nM

B4: SEQ ID NO 62 (peptide)
peptide: Ac-[Pen][NMeR]SDTL[Pen]WE[Dab]
modifications: disulfide 1-7 (inferred); not fully specified (residue 10); printed as Ac-Pen-(N-Me-R)-S-D-T-L-Pen-W-E-Dab-Ac
  α4β7 cell (Hu) IC50: > 1000 nM

## Ac-[Pen][NMeR]SDTL[Pen]W[dE][Dap] (disulfide 1-7 (inferred); also: Ac written after C-terminal Dap, place unclear) [SEQ ID NO 63]
  α4β7 cell (Hu) IC50: > 1000 nM

B5: SEQ ID NO 64 (peptide)
peptide: Ac-[Pen][NMeR]SDTL[Pen]W[dE][Dab]
modifications: disulfide 1-7 (inferred); not fully specified (residue 10); printed as Ac-Pen-(N-Me-R)-S-D-T-L-Pen-W-e-Dab-Ac
  α4β7 cell (Hu) IC50: > 1000 nM

B6: SEQ ID NO 65 (peptide)
peptide: Ac-[Pen][NMeR]SDTL[Pen]WE[dK]
modifications: disulfide 1-7 (inferred); not fully specified (residue 10); printed as Ac-Pen-(N-Me-R)-S-D-T-L-Pen-W-E-k-Ac
  α4β7 cell (Hu) IC50: > 10000 nM
